This is an account of results in patent US7494647 (Chugai, dated 2009).

Positions count from the first letter of the chain named. Where two headings read alike, the source gives them in different places.

For orientation: EC50 (read off the curve) means the concentration giving half of the maximal effect. Read a high EC50 (read off the curve) as lower potency in that assay.

Common to all, as to assay: cell ELISA on paraformaldehyde-fixed J82 cells; AP-conjugated goat anti-human IgGγ; absorbance 405/655 nm
Test [1] concerns the target T1, human tissue factor (TF) on human bladder carcinoma cells J82 (human, UniProt P13726 33-295).
T1 construct: whole, on cells; also called the antigen; J82 cells
How it is done: (§1) Cell ELISA plates for measurement of antigen binding were prepared as follows. Cells used were human bladder carcinoma cells J82 (ATCC HTB-1). To 60 wells of a 96-well cell culture plate, 1 ×10^5 J82 cells were inoculated. This was cultured (RPMI1640 medium containing 10% fetal bovine serum (GIBCO)) for one day in a CO_2 incubator to allow the cells to be attached thereto. After discarding the culture liquid, each well was washed twice with 300 μl PBS. 100 μl of PBS containing 4% paraformaldehyde (hereinafter referred to as PFA/PBS) was added to each well, and placed on ice for 10 minutes to immobilize the cells.
(§2) PFA/PBS was discarded, and each well was washed twice with 300 μl of PBS, and then blocked with 250 μl of DB. The culture supernatant or purified antibody was serially diluted with DB, 100 μl of which was added to each well. After incubating at room temperature for 2 hours followed by washing with RB, 100 μl of alkaline phosphatase-conjugated goat anti-human IgGγ antibody (BioSource) diluted 1000-fold with DB was added. After incubating for 1 hour followed by washing with RB, the substrate solution was added, and then absorbance at 405/655 nm was measured using the Microplate Reader (Bio-Rad).

Test [2] concerns the target T1, human tissue factor (TF) on human …. How it is done:
as §1, §2
The source holds these as a separate data set.

For test [3] the target is unchanged. How it is done:
as §1, §2
The source holds these as a separate data set.

The target is the same in test [4]. How it is done: as §1, §2
The source holds these as a separate data set.

T1 sequence (P13726 33-295): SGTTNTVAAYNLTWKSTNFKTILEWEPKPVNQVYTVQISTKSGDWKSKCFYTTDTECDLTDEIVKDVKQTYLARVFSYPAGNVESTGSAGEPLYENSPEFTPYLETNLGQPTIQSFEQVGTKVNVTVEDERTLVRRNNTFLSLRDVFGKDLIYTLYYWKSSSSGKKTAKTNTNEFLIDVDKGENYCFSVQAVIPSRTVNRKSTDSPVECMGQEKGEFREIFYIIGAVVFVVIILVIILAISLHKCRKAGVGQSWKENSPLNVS

B1: H chain humanized version b/L chain humanized version c antibody (antibody, V domains shown)
VH: QVQLLESGAVLARPGTSVKISCKASGFNIKDYYMHWVKQRPGQGLEWIGGNDPANGHSMYDPKFQGRVTITADTSTNTAYMELSSLRSEDTAIYYCARDSGYAMDYWGQGTLVTVSS
VL: DIQMTQSPSSLSASVGDRVTITCKASQDIKSFLSWYQQKPGKAPKLLIYYATSLADGVPSRFSGSGSGTDYTLTISSLQPEDIATYYCLQHGESPYTFGGGTKVEIK
notes: also called b-c
In the case of B1, in test [1], the “EC50 (read off the curve)” value is roughly 0.05 µg/mL.

B2: H chain humanized version a/L chain humanized version a antibody (antibody, IgG4, V domains shown)
VH: QVQLLESGAVLARPGTSVKISCKASGFNIKDYYMHWVKQRPGQGLEWIGGNDPANGHSMYDPKFQGRAKLTAATSASIAYLEFSSLTNEDSAVYYCARDSGYAMDYWGQGTLVTVSS
VL: B1 VL with Y71F, I83F
Turning to B2, the “EC50 (read off the curve)” value in test [2] is roughly 0.03 µg/mL.

B3: H chain chimeric/L chain humanized version b antibody (antibody, IgG4, V domains shown)
VH: EVQLQQSGTNLVRPGALVKLSCKGSGFNIKDYYMHWVKQRPEQGLEWIGGNDPANGHSMYDPKFQGKASITADTSSNTAYLQLSSLTSEDTAVYFCARDSGYAMDYWGQGTSVTVSS
VL: B1 VL with I83F
notes: H chain V region is that of mouse ATR-5; also called ch-b
With B3, in test [3], the “EC50 (read off the curve)” value was roughly 0.08 µg/mL.

B4: H chain chimeric/L chain humanized version c antibody (antibody, IgG4, V domains shown)
VH: B3 VH
VL: B1 VL
notes: H chain V region is that of mouse ATR-5; also called ch-c
Turning to B4, in test [3], the “EC50 (read off the curve)” value is roughly 0.07 µg/mL.

B5: H chain chimeric/L chain humanized version a antibody (antibody, IgG4, V domains shown)
VH: B3 VH
VL: B1 VL with Y71F, I83F
notes: H chain V region is that of mouse ATR-5
Regarding B5, the “EC50 (read off the curve)” value in test [4] was roughly 0.03 µg/mL.
